Article PMC4585211

Legend:
[1] = molecular target: LHCGR-Q303P/E305P (double proline mutant of the human lutropin/choriogonadotropin receptor), GFP fusion (human) (UniProt P22888)
[2] = molecular target: LHCGR-delExon10 (human lutropin/choriogonadotropin receptor lacking the exon10-encoded segment), GFP fusion (human) (UniProt P22888)

Substance | EC50 of cAMP accumulation (radioimmunoassay) in transiently transfected HEK 293 cells, stimulation with hCG for 1 h at 37°C; significantly right-shifted against wild type (0.15 IU/ml) [1] [IU/ml] | EC50 of cAMP accumulation (radioimmunoassay) in transiently transfected HEK 293 cells, stimulation with hCG for 1 h at 37°C; wild-type-like (wild type 0.15 IU/ml) [2] [IU/ml] | EC50 of cAMP accumulation (radioimmunoassay) in transiently transfected HEK 293 cells, stimulation with hLH for 1 h at 37°C; not significantly different from wild type (0.13 IU/ml) [1] [IU/ml] | EC50 of cAMP accumulation (radioimmunoassay) in transiently transfected HEK 293 cells, stimulation with hLH for 1 h at 37°C; significantly right-shifted against wild type (0.13 IU/ml) [2] [IU/ml]
human choriogonadotropin (hCG) (from UniProt P01215 25-116; P0DN86 21-165) (ligand) | 0.85 | 0.18 |  | 
human lutropin (hLH) (from UniProt P01215 25-116; P01229 21-141) (ligand) |  |  | 0.24 | 0.51
